Source: patent US20180057536

How the values were obtained:
[1] = tested on: T1, Selective delivery molecule 10 (SDM-10)
T1 sequence: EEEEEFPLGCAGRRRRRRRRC

[2] = tested on: T2, Selective delivery molecule 9 (SDM-9)
T2 sequence: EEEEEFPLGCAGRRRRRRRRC

| Substance | Cy5 fluorescence enhancement after protease cleavage (dequenching), 1 uM SDM-10 in TCNB buffer [1] | fluorescent cleavage fragment on polyacrylamide gel (1 nM MMP-9, 1 uM SDM-10, 24 h, 37 C) [1] | Cy5 donor emission after protease cleavage (FRET disruption), 1 uM SDM-9 in TCNB buffer [2] | Cy7 acceptor emission after protease cleavage (FRET disruption), 1 uM SDM-9 in TCNB buffer [2] |
| --- | --- | --- | --- | --- |
| MMP-9 | the fluorescence was enhanced >100-fold upon protease cleavage | After cleavage by MMP-9 the fragment containing the fluorophore is dequenched (becoming highly fluorescent) and runs near the bottom of the gel |  |  |
| matrix metalloproteinase-2 (MMP-2) |  |  | a large 8-fold increase the Cy5 donor emission | 2-fold decrease in the Cy7 emission |
